Earlier results, collected in PMC6307816.

Target: EGFR (Homo sapiens) (UniProt P00533)

Kd: < 0.2 nM
Substance: EGF (from UniProt P01133)
